Tests used:
[1] = target: GFP-tagged Plasmepsin V (PmV-GFP), P. falciparum clone DC6 (Plasmodium falciparum); experiment: enzyme inhibition (fluorogenic substrate cleavage), Ki calculated from IC50; bead-bound PmV-GFP at <=10 pM, 3 uM DABCYL-[…]-EDANS substrate, serial dilution of inhibitor 10 uM to 0.1 pM, 37 C, 50 mM Tris-Maleate pH 6.5, 50 mM NaCl, 0.05% TX-100, 2 mM DTT; Ki from IC50 = Ki (1 + [S]/KM)
[2] = target: GFP-tagged Plasmepsin V (PmV-GFP), P. falciparum clone DC6 (Plasmodium falciparum)

Chain of GFP-tagged Plasmepsin V (PmV-GFP), P. falciparum clone DC6 (Plasmodium falciparum) (Q8I6Z5 whole entry): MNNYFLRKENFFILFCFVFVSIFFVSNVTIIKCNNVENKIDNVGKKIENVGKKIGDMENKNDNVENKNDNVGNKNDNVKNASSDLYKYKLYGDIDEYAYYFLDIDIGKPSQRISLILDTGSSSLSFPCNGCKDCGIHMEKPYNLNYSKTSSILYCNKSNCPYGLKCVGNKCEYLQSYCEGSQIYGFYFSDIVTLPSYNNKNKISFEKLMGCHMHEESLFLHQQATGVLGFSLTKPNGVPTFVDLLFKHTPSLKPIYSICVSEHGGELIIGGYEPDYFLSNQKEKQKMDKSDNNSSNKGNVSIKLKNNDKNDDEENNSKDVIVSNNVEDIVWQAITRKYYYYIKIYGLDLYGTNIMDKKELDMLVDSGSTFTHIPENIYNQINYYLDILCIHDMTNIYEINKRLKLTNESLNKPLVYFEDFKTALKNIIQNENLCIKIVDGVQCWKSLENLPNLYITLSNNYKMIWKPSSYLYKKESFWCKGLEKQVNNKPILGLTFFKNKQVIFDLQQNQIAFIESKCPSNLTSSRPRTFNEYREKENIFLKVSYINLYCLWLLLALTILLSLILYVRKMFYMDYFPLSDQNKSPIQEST

Substance: Compound 1 (LG20), RL[L~A]EA (peptide)
- Ki [1]: 0.197 nM
- IC50 of inhibition of PmV cleavage of the fluorogenic HRPII-PExEl substrate (enzyme pre-mixed with inhibitor) [2]: 367 pM
- IC50 of inhibition of PmV cleavage of the fluorogenic HRPII-PExEl substrate (inhibitor added after the reaction was initiated) [2]: 329 pM
